The labels stand for the following.
B1: TPR t1 (parent)
chain: GACCAAUCUGCCCUCAGAGCUCGAGAACAUCUUCGGAUGCAGAGGAGGCAGGCUUCGGUGGCGCGAUAGCGCCAACGUCCUCAACCUCCAAUGCAUCCCACCACAUGAUGAUGCCUGAAGAGCCUUGGUUUUUUG

From the RNAGym collection of RNA variant scans (doi:10.1073/pnas.2313332121) come the findings set out here.

In this data set the parent is B1. Description: polymerase ribozyme fitness, log enrichment relative to wild type (log ratio); higher = more active; in vitro selection for triplet polymerase activity. The method in brief:
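In triplicate, a single round of in vitro selection was run on each mutant library, PCR-built and transcribed, covering one subunit of a heterodimeric triplet polymerase ribozyme. Frozen incubation at −7 °C followed annealing with a biotinylated primer, partner subunit and triplets, and extended constructs were then gel-excised, streptavidin-captured and taken through RT-PCR. Fitness is the logarithm of genotype enrichment over wild-type enrichment, from inverse-variance-weighted replicate averages of Illumina-sequenced inputs and outputs. […] only genotypes with ≥10 input reads and ≥1 read per output were kept.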
U9A G19C A41U: the “polymerase ribozyme fitness (log ratio)” value is -1.63. Consider C8G C12A U109A A119C A121G, for which the “polymerase ribozyme fitness (log ratio)” value was -5.47. To C8U C12A G35U G45C C53G C104U belongs -6.79. To C8U A41C C73A G122A belongs 0.223.

As for C8G A18U U21A C79A C123G, the “polymerase ribozyme fitness (log ratio)” value was -3.84.

For the variant C8G G10A C20U A24U C49U G61A C80G G120U, the “polymerase ribozyme fitness (log ratio)” value was -7.85. For C8U C11G G48C C56U C89U G117U the value was -1.01; for C8G C22A C53U C89A C114U G117A G135A, -3.7; for C8G C89A G117A U129A, -2.73. To C8G G52U C73A U92G belongs -2.91; to C8U U14G G60A C73U, -0.213; to C8G G117A, 0.795. With C8G C11A U96G C97G U131G, the “polymerase ribozyme fitness (log ratio)” value was -5.45. To C8U A27U C76G U96G belongs -3.38; to C8U G93U C102U G120C, -1.01; to C8G C89A A105U, -3.66. Consider C8G G45A G52U C53A C98U G110A G120C U129A, for which the “polymerase ribozyme fitness (log ratio)” value was -6.11. Regarding C8G G10U G69U A95U C102A C114G U129G, the “polymerase ribozyme fitness (log ratio)” value was -2.33.

For C8A U30C G69U A118U G120A U129G, the “polymerase ribozyme fitness (log ratio)” value is -1.47. On to C8U C15A A66U A118U A121C, for which the “polymerase ribozyme fitness (log ratio)” value was -0.152. For C8G C34U C70A G117A U126A the value was -6.92; for C8G C34G C88U U112C G113A, -6.08. To U9A A16G G93A G117A belongs -0.214; to C8U C13A A37C G61U U87G C102U, -1.74; to C8U G71A C76A G120U, -5.96. In the case of C8G A24G C72G C97G C115G, the “polymerase ribozyme fitness (log ratio)” value is -4.32. For C8G C73G G128A the value was -1.19. For C8G C85A A121U the value was 1.35; for C8U A43C C94U U130A, -2.21. To U9A C12A A16C A26U G47U belongs -5.44; to C8G C13G, 0.865; to C8G C13A, 0.587. Regarding C8U G10U C72U, the “polymerase ribozyme fitness (log ratio)” value is -0.279.

With C8U C40U C104A A119G, the “polymerase ribozyme fitness (log ratio)” value is -1.19. To C8G G47C C82U belongs -1.06; to C8U C12A G61A C79U, 0.0887; to C8G G58C A75C A108U U132A, -5.79.

Take C8U C62U U87A A121U: the “polymerase ribozyme fitness (log ratio)” value came to 1.89. To C8G C15U A18C C53A U55A C56G belongs -1.96.

Take C8G G10A: the “polymerase ribozyme fitness (log ratio)” value was 0.258. For C8U C15A A119G the value was 0.435; for C8G A75G C88A C124U, 1.57; for C8U C70A C115U G117A, -4.95. To C8A U67C belongs -3.31; to C8G U30C G60C, -4.49; to C8G U14A G58C, -0.0186. To C8G C40A C70G C114A belongs -5.85. In the case of U9A G17A G113A, the “polymerase ribozyme fitness (log ratio)” value was -3.11. For C8G A16U A90U the value was -0.236.

In the case of C8U G39C C79U G120U, the “polymerase ribozyme fitness (log ratio)” value turned out to be 1.3. To C8U C13G G110U belongs -1.09; to C8G C11G C56A C104A, -1.39; to C8G A103U, -3.34. For C8G C40G U81G C82U the value was -0.759; for C8G A18C G36U C72A U78G C82A C85G, -5.25; for C8U C12U C101G A121C, -0.571. For C8A U30G C115U U130G the value was -5.92; for C8G C20U C89A A100U C102A, -5.22; for C8U A18C A41U A50G C72G C101U, -3.51. As to C8U A18U, the “polymerase ribozyme fitness (log ratio)” value was -1.03.

As to U9A C31G A83C G107C, the “polymerase ribozyme fitness (log ratio)” value is -1.45. To C8G G36C A84U C115U G122U belongs -1.01; to C8U U55G G113C, -1.85; to C8U G52U U54G G63A A118G, -3.26. For C8G C34G G39C G120U the value was -4.99. For C8U A18U G57A C64U C94U the value was -4.97; for C8U C11U A29U C70A, -3.03; for C8G C15U G69C A90U, -3.02. Take C8G C12A C20U A37C U92A G113U: the “polymerase ribozyme fitness (log ratio)” value is -1.85. In the case of U9A C73U G117A, the “polymerase ribozyme fitness (log ratio)” value was 0.559. For C8G C79G C80A the value was -5.06. To C8G C85U belongs -0.269. To C8U G65A belongs -4.53; to C8G G57A C73U U78A A91U, -1.7; to C8U U96C, 0.939. In the case of U9A C11A G42U G61U, the “polymerase ribozyme fitness (log ratio)” value was -1.6.

Turning to C8G G107U C123G, the “polymerase ribozyme fitness (log ratio)” value was -2.76. To C8G C13U G47C belongs -0.248. For C8U C88U A121C the value was 1.33; for C8G C64U G135U, 0.0899. For the variant C8U G69U C115A, the “polymerase ribozyme fitness (log ratio)” value was found to be 1.59. For C8U G60C the value was 0.253; for C8G C40A U78C, -0.518. U9A A29U G63A C104A: the “polymerase ribozyme fitness (log ratio)” value was -3.02. For the variant C8U C56G C80A, the “polymerase ribozyme fitness (log ratio)” value was -1.69.

With C8G C20U G42U A83U U116C C123A, the “polymerase ribozyme fitness (log ratio)” value was -3.74. For C8G G63A the value was -0.627; for C8U G51A C64U C104G G120C, -6.76; for C8U C72U C82A A84C A111C, 0.264. As to C8U A74U C94A, the “polymerase ribozyme fitness (log ratio)” value was -0.334. To C8G G44A U92A C97U belongs -2.59; to C8G A18U G52U A90C, -1.7; to U9A C79A G93U C101A, -2.59. For C8G A91U the value was -1.17; for C8U C15U C72G G120U, 1.39; for C8G A41C G63U G113A A118G, -3.33. Consider C8G C40A C53G G63U U109G, for which the “polymerase ribozyme fitness (log ratio)” value is -7.06.

On to C8G C98G, for which the “polymerase ribozyme fitness (log ratio)” value was -5.23. Regarding U9A C13G A16U A41U, the “polymerase ribozyme fitness (log ratio)” value was -1.62. To U9A A91G belongs -0.793. Turning to C8U G52C, the “polymerase ribozyme fitness (log ratio)” value is -0.0551. For C8A U129A the value was -0.0105. For C8U A95G C102U U106A the value was -3.3; for U9A C49A C72A A100U, -0.384. C8U C12A G19U U59C A75U G120A: the “polymerase ribozyme fitness (log ratio)” value is -1.37. For C8U C53A C73G the value was -0.563; for C8U C62U C64A, -5.43; for C8G C76A C82A C114G, -4.44. To U9A A50C A91G U106C belongs -1.11. Turning to C8G U96A, the “polymerase ribozyme fitness (log ratio)” value turned out to be 0.0383. With C8G U9C A41C A43U G52A U112A, the “polymerase ribozyme fitness (log ratio)” value is -0.712. To U9A C34A G51A C70U A121C belongs -6.25; to C8G G10U G36U, -0.687; to C8G G48A G128U, -2.01. For C8U G127C, the “polymerase ribozyme fitness (log ratio)” value is -1.53. For C8G G39C C62A the value was -0.386; for U9A C56G, -0.125. For C8U C11G G93A the value was -0.424; for C8G G71A C72A C102A, -3.77. For C8G C56G C89A A90C G107C G117C the value was -5.56. In the case of C8U C72G, the “polymerase ribozyme fitness (log ratio)” value amounted to 0.517. For C8U C22U G52U G60C, the “polymerase ribozyme fitness (log ratio)” value was -4.56. To U9A C114A belongs 0.123. For C8G C79U G110C the value was -4.01; for C8G C34U G39U G58A A84U, -5.29. Regarding C8U C22G U55C C73A C98A A111G U112A, the “polymerase ribozyme fitness (log ratio)” value was -6.04. For U9A C73A C104U U130G G135C the value was 0.682. On to C8U A29G U112A, for which the “polymerase ribozyme fitness (log ratio)” value is -0.107. To U9A G19A G52U A105C A111G G120A belongs -5.2; to C8U G47C C62U, -1.51. To C8U C12U C49U U116A G120U C123U U126C belongs -4.26.

On to C8U G44A C56A, for which the “polymerase ribozyme fitness (log ratio)” value is -0.314. To C8U C73U G120A belongs 1.89; to C8U C22G G39C A41G G63A A118U, -3.78; to C8G A43U A95U U109A C123G, -5.23.

Take C8G G63A G127C: the “polymerase ribozyme fitness (log ratio)” value was -1.12. For C8G C53G C56U G93C the value was 0.798; for U9A C13G G61U, 0.255. To C8G C56A C123A belongs 1.29; to C8G C28A U130A, -5.09. For C8U G44A U109A the value was -5.08. As for C8U C53U C73U A105C U125G, the “polymerase ribozyme fitness (log ratio)” value was -1.94. To C8U C28U U116A belongs -3.54; to C8U G48U A50U G69U C86U U96A, -1.23; to C8U C22G U33A A50C G57U G120U, -4.54. For C8U G61U the value was 0.435; for C8G C49G G71A U87A C124U, 0.992; for C8U U38G G61U G93A, -4.11. For C8G A108G the value was -0.714; for C8U G42U, -0.81. C8U G42A A111G U116A A121G C124G: the “polymerase ribozyme fitness (log ratio)” value is -2.21. For C8G C20U A68G G113C the value was -5.52. To C8U G44A C104U belongs 0.0147.

On to C8G A27U A46C G69U U78A C114U, for which the “polymerase ribozyme fitness (log ratio)” value was -4.5. For U9A A16U G63A U129C the value was -1.11; for C8G G36A A121C U131G, 1.28. For C8U C22A C62U the value was -4.04; for C8U C70U, -0.398; for C8U C70G, -1.58. For C8U C70A the value was -1.06. For C8U U59A C94U A119U, the “polymerase ribozyme fitness (log ratio)” value was -0.404.

Regarding C8G C73A G120C, the “polymerase ribozyme fitness (log ratio)” value amounted to 2.29.

Regarding C8G G35A, the “polymerase ribozyme fitness (log ratio)” value is -2.23.

As to C8G G47U, the “polymerase ribozyme fitness (log ratio)” value is 0.0211. As for C8G C102A, the “polymerase ribozyme fitness (log ratio)” value was -1.02. With C8G C12G U30C C53G C114U, the “polymerase ribozyme fitness (log ratio)” value is -4.29.

With C8U U32C C62A G117U, the “polymerase ribozyme fitness (log ratio)” value is -2.35.
